Measured values taken from the DeepSol protein solubility set.

assay: soluble on expression in E. coli; label from the status in PepcDB or PDB records

| Sequence | soluble on expression in E. coli |
| --- | --- |
| MGSDKIHHHHHHMYFNVYGHAGKPIIVFPSSGGSQNEYGDFGMIEACQSFIDRGVVKFYTPDSLDRESWLAEGKSGHDMALAHEAYDRYIVHELVPLIRYESNWNGMMMATGCSMGAFHTVNFSLRHPDLFDISVALSGVYDARFFTGEFYGDPAVYYNSPIDYLWNQEDSWFLDRYRRNRFIVAVGQGAWEEPHIIDTIRLKEAFEAKSIPAWFDFWGSDVAHDWEWWRVQMPYFLGKLEEEGRI | not soluble |
| MASSINNRKPSEIFKAQALLYKNMYAFVDSMSLKWSIEMNIPNIIHNHGKPITLSNLVSILQIPSTKVDNVQRLMRYLAHNGFFEIITNQELENEEEAYALTVASELLVKGTELCLAPMVECVLDPTLSTSFHNLKKWVYEEDLTLFAVNLGCDLWEFLNKNPEYNTLYNDALASDSKMINLAMKDCNLVFEGLESIVDVGGGNGTTGKIICETFPKLTCVVFDRPKVVENLCGSNNLTYVGGDMFISVPKADAVLLKAVLHDWTDKDCIKILKKCKEAVTSDGKRGKVIVIDMVINEKKDENQLTQIKLLMNVTISCVNGKERNEEEWKKLFIEAGFQDYKISPFTGLMSLIEIYP | soluble |
| MLEKSFLKSKQLFLCGLGVLMLQACTCPNTSQRNSFLQDVPYWMLQNRSEYITQGVDSSHIVDGKKTEEIEKIATKRATIRVAQNIVHKLKEAYLSKTNRIKQKITNEMFIQMTQPIYDSLMNVDRLGIYINPNNEEVFALVRARGFDKDALSEGLHKMSLDNQAVSILVAKVEEIFKDSVNYGDVKVPIAM | not soluble |
| MNTINRNVYPVSGLSTQSVNPDSDGIQPPDVKSGHNSQLIDFSSPQQVNGLQSSLSLSGSRPQVPATRAASDASENPVELLLNKLVEAIRNILKDLLSLFKGDQQQDQAPPPAQTQREQAPSFSQLSQTPSSASPSSPSPSAAPAPAPTPTPTEKPFVVQNDHPADKPVTVQKNTAPTPPDPVQTQDKTSVTAPPKPVAATPAAHPRATTPVTEKPDTEEKVAKPAPRAAHGQGADMSGMIGFAKEANTTGGNNGEVVTVNTVADLKKYMEDDTARTVKLGANLSADSKVSINFGANKTLLGTDKGNSLHNIYLASGKTASNDIFQNLNFTHDSRYRENGDMQMFISSGQKYWIDHITATGTKDQNPKGLDKLLYVGGKADNVSLTNSRFQNNEYGVILGQPDDSADAKAEYKGYPRMTIANNVFSDLDVRAPGLMRHGQFDVFNNSINDFHLGFTATGDATILSQANYFAKGVDVSNKASNSGVLDDYGDAHFKDIGSNVSFTQKSPVTAWTPSYNRDIKTAEAARAYDLANAGAEAVR | not soluble |
| MMKIAIIGSGISGLTCGYYLHRYHDITLFEANDYIGGHTATVDVELAGKPYAVDTGFIVYNDRTYPNFIKMMDEIGVQGKPTQMSFSVRNDANGLEYNGHTLTTLFAQKRNWLNPKFYRFIAEILRFNRLTKACVDNQLANEQTLGDFLAQHQFSEYFCENYILPMGAAIWSSSLADMRAFPLMFFARFFLNHGLLDVTNRPQWYVIPGGSRSYIAPLTQGFGDRIRLNSAVTQVKRLPSGVEVVVNGRSERFDEVIFACHSDQALAMLSDASSTEQQLLSALAYQANEVVLHTDTRLLPKRKAAWAAWNYWLKGEANQETRLPSLTYNMNILQHIEAPETFCVTLNSSEDIDPSKILRRFTYHHPVFSRPAIEAQQKKAQISGVNHTWFCGAYWHNGFHEDGVRSALDVVTQLEAYAQRSEQGAA | not soluble |
| MKVIEVTHPIQSKQYITEDVAMAFGFFDGMHKGHDKVFDILNEIAEARSLKKAVMTFDPHPSVVLNPKRKRTTYLTPLSDKIEKISQHDIDYCIVVNFSSRFANVSVEDFVENYIIKNNVKEVIAGFDFTFGKFGKGNMTVLQEYDAFNTTIVSKQEIENEKISTTSIRQDLINGELQKANDALGYIYSIKGTVVQGEKRGRTIGFPTANIQPSDDYLLPRKGVYAVSIEIGTENKLYRGVANIGVKPTFHDPNKAEVVIEVNIFDFEDNIYGERVTVNWHHFLRPEIKFDGIDPLVKQMNDDKSRAKYLLAVDFGDEVAYNI | not soluble |
| MAHHHHHHMAVSSARESVTDLLSGREDVRTVSSSTMAQESTTIKTGELGEDGGGDGVISDRSNVLARVFEELLDAEVSMNPAKLREASRAGIPSLYRSTVYRYLLGITFVDHSREMSLERMQEKDFEQLLTAFGRIVASDGTGQRPSVKGRIMQPLASPRLHDSETIPLITRDESQFANGYRCSDRSFSVGYAAWIKFRANLRYLPRFVGNPERRQRMECAWQALHVTSSGATPDEVENLFELALVFESVHGTARDIYFSTSSLYYLLTHHGNVLQNAQCLQRMCGTFLMLFRATNFDLYRHFVAESVTAVEWLPGMLKTLLAGRLHEEDLLRLWDVYLADALEYLGFPLHPYVCLAILEEMTEVLLECEKSGIIERLRHLPRIEAGSIIQKAISLKESVFSKDLL | not soluble |
| VRLLESGGGLVQPGGSLKLSCAASGFDYSRYWMSWVRQAPGKGLKWIGEINPVSSTINYTPSLKDKFIISRDNAKDTLYLQISKVRSEDTALYYCARLYYGYGYWYFDVWGAGTTVTVSSAKTTPPSVYPLAPGSAAAAASMVTLGCLVKGYFPEPVTVTWNSGSLAAGVHTFPAVLQAALYTLSSSVTVPSSSWPSETVTCNVAHPASSTKVDKKIVPRA | soluble |
| MVYWEYKINQTRRVMKNLKFQSVFDIIGPVMVGPSSSHTAGAVRIGKIVSAIFGDAPTEVEFQLFNSFAKTYRGHGTDVALVAGILGMETDDPDIPHALDIAHEKGIKVYWKINKDSKAPHPNTTRITLKNATKTISATGISIGGGNIQVTELNGF | not soluble |
| MLESVVAYGIIAGARAITGLRSLWLGTTPIPKQRIYYANHSSHGDFVLLWASLPPEVRRRTRPVAGADYWNKAGLRSYVINKVFNGVLVDRQRSEANANPLEPLDRALDGGDSLIIFPEGTRNLDDEVKLLPFKSGIYHLSLAHPDVELVPVWLANLNRVMPKGRMLPLPLLCTLSFGKPLVATAEEGKEAFLERARMALLDLAPEEEA | not soluble |
| MVEKEEAGGGISEEEAAQYDRQIRLWGLEAQKRLRASRVLLVGLKGLGAEIAKNLILAGVKGLTMLDHEQVTPEDPGAQFLIRTGSVGRNRAEASLERAQNLNPMVDVKVDTEDIEKKPESFFTQFDAVCLTCCSRDVIVKVDQICHKNSIKFFTGDVFGYHGYTFANLGEHEFVEEKTKVAKVSQGVEDGPDTKRAKLDSSETTMVKKKVVFCPVKEALEVDWSSEKAKAALKRTTSDYFLLQVLLKFRTDKGRDPSSDTYEEDSELLLQIRNDVLDSLGISPDLLPEDFVRYCFSEMAPVCAVVGGILAQEIVKALSQRDPPHNNFFFFDGMKGNGIVECLGPK | soluble |
| MKIAIIGAGIGGLTAGALLLEKGHDVSIFERQSNISEVGAGIGIGDNVIKKLGKHDLAKGIKNAGQNLSAMNVLDDKGNILSAVKLKEATLNVTLARQTLIELIQSYVNPQCIYTDHDVIKVENVEQHTMVHFSNHASQSFDLCIGSDGLHSVVRQAIHQNAKILYQGYTCFRGLVDDADLHNIDIASEYWGKRGRVGIVPLINNQAYWFITINASEKDPKYQTFEKPHLQAYFNNYPEPVRQILDKQSETGIQKHDLYDMKPLKSFVNQRILLLGDAAHATTPNMGQGAGQAMEDAIVLVNCLAEYDIEKALKRYDKLRVKHTAKVIKRSRKIGKIAQKDNKLVISLRNGVMKRTPNRLLSGQTKFLYKAKHKLEHHHHHH | not soluble |
| MGSDKIHHHHHHMREGSIVKLESLINQKYSNLNQTEKEILAFIIENRDFVRKASLSEVAEKSLFSKSAIFRCCKKIGLTGFSQLRYVLTDEKDSEQDSLISVDYLAQTVKSMLWTVNQFKSTNADDIYATLAAAGTIYIYSTGWQQQIMAQQLQRDLYLIGKFAFVFPTGHDEMQLSSTKIKPGDAVIVISYKGMNATIVQLVNNLKLNGVRIVSFTSFRQNRLAQAANFNLYYDIINKTVGIERKTERFFANLTLLIDIFSMGFANYLVAKEERDHEHGEYGQRKSK | not soluble |
| MQALNSISSLQTSASLFPVSLNSDVSANTSTSSKELKAVIDQLVQALTQSGQLDETSPLGKMLAKAMAADGKSANSIDDITASLDKLIHEKLGDNFGASAGIGAGGGGGGIGGAGSGSGVGGGLSSDAGAGQSDLMSQVLNGLGKAVLDDLLTPSGEGGTTFSSDDMPTLEKVAQFMDDNKAQFPTRDGGSWMNELKEDNGLDAQETAQFRSALDVIGQQLGQQQGDASGVTSGGGLGSPVSDSSLGNPAIDANTGPAANGNASVDVGQLIGQLIDRGLQSVSSGGGLGTPVDNSTQPTGGTPAANPTGNVSNQDLGQLLSGLLQRGLEATLQDAGNTGADLQSSAAQVAAQLINALLQGTNNQTNQAVALEHHHHHH | soluble |
| MEYGDRHITVVDEHGNEQLCEILFTFESDDFGKSYVFYYPVGVEAEDENGETEVHVSAFIPGDENKEGELLPIETEEEWDMIEEVWNTFCAEQEEEDDE | not soluble |
| MSLKQAIFVMMDQYADWEGAHLSSQLNQMTDWTVKTASNQPEVTSIGGWTTRVDYQISELNPEMTLLVLIGGNAWQHDDPRLTALIQQCLQRKVIVGAICGAVDYLARNGLLTGYRHTGNAQFSWQSFPKYQNPTDFELQQVVVDRQLVTANGTAALSFTSAVLKASGQLTIAAKQALDLQQLGYYDNTETHLNEGHHHHHH | not soluble |
| MTAQLQSESTSKIVLVTGGAGYIGSHTVVELIENGYDCVVADNLSNSTYDSVARLEVLTKHHIPFYEVDLCDRKGLEKVFKEYKIDSVIHFAGLKAVGESTQIPLRYYHNNILGTVVLLELMQQYNVSKFVFSSSATVYGDATRFPNMIPIPEECPLGPTNPYGHTKYAIENILNDLYNSDKKSWKFAILRYFNPIGAHPSGLIGEDPLGIPNNLLPYMAQVAVGRREKLYIFGDDYDSRDGTPIRDYIHVVDLAKGHIAALQYLEAYNENEGLCREWNLGSGKGSTVFEVYHAFCKASGIDLPYKVTGRRAGDVLNLTAKPDRAKRELKWQTELQVEDSCKDLWKWTTENPFGYQLRGVEARFSAEDMRYDARFVTIGAGTRFQATFANLGASIVDLKVNGQSVVLGYENEEGYLNPDSAYIGATIGRYANRISKGKFSLCNKDYQLTVNNGVNANHSSIGSFHRKRFLGPIIQNPSKDVFTAEYMLIDNEKDTEFPGDLLVTIQYTVNVAQKSLEIVYKGKLTAGEATPINLTNHSYFNLNKPYGDTIEGTEIMVRSKKSVDVDKNMIPTGNIVDREIATFNSTKPTVLGPKNPQFDCCFVVDENAKPSQINTLNNELTLIVKAFHPDSNITLEVLSTEPTYQFYTGDFLSAGYEARQGFAIEPGRYIDAINQENWKDCVTLKNGETYGSKIVYRFS | soluble |
| MSLAYETFAFVYDEVMDESLYQKWLDFSNRHLPQGTQQILEMACGTGALAVDFAKSGYDVTALDLSEEMLMIASERAFEEEVPVQFVQGNMLDLSEVGQYQAITCFSDSLCYMANRQEVQQVFDEVYQALEEEGTFIFDVHSTYKIDSVFPEYSYHYQTEEFAFLWDSYAGEKEHSIEHFLTFFVKEQETDEHFVRYDELHQERTYSLDNYLRMLESAGFMNVKVYADFTDEAPTETSERWFFVCQRDEGHHHHHH | soluble |
| KGFSSEDKGEWKLKLDASGNGQAVIRFLPAKTDDALPFAILVNHGFKKNGKWYIETCSSTHGDYDSCPVCQYISKNDLYNTNKTEYSQLKRKTSYWANILVVKDPQAPDNEGKVFKYRFGKKIWDKINAMIAVDTEMGETPVDVTCPWEGANFVLKVKQVSGFSNYDESKFLNQSAIPNIDDESFQKELFEQMVDLSEMTSKDKFKSFEELNTKFNQVLGTAALGGAAAAAAS | soluble |
